Read-outs that look alike come from different tables or passages of the source. Bridges are numbered along the chain shown (N, C = ends). Where no end group is shown, it is not given here.

As usually defined, the IC50 is the concentration that gives 50% inhibition. A low value points to higher potency. The term EC50 denotes the concentration giving half of the maximal effect. Read a low EC50 as greater potency.

For assay [1], the target named is T1, human MCH receptor (membranes from a stable CHO or HEK-293 cell line) (human, UniProt Q99705 1-353).
T1 construct: whole, on cells; also called cloned human MCH receptor (CHO clone)
The assay can be described thus: competition vs [125I]-human MCH (Phe13,Tyr19); human MCH receptor cell membranes (Example 3).

The target of assay [2] is T2, human MCH receptor expressed from the open reading frame cDNA SEQ. ID. NO. 1 in 293-AEQ17 cells (human, UniProt Q99705 1-353). The assay can be described thus: cell-based or functional assay.
Assay [3] concerns the target T1, human MCH receptor (membranes from a …). The assay can be described thus: competition vs [125I]-human MCH (Phe13,Tyr19); human MCH receptor cell membranes (Example 3). This is another data set of the same source.
Assay [4] concerns the target T2, human MCH receptor expressed from the …. The assay can be described thus: cell-based or functional assay. The source holds these as a separate data set.
Assay [5] has the same target. The assay can be described thus: cell-based or functional assay. The source holds these as a separate data set.
The target is the same in assay [6]. The assay can be described thus: cell-based or functional assay. This is another data set of the same source.
For assay [7] the target is unchanged. The assay can be described thus: cell-based or functional assay. The source holds these as a separate data set.
Assay [8] shares this target. The assay can be described thus: cell-based or functional assay. The source holds these as a separate data set.

T2 sequence (Q99705 whole entry): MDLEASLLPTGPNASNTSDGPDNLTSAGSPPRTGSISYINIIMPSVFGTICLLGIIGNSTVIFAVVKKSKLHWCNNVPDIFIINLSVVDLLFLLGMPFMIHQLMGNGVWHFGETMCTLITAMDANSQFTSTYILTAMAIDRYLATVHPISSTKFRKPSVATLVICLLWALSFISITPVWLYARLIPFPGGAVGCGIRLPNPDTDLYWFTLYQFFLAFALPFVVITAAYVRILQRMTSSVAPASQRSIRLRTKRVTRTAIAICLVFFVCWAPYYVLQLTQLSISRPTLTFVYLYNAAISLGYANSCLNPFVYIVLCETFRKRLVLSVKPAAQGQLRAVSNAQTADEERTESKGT
T1 sequence (Q99705 whole entry): as above

B1: MCH analog SEQ. ID. NO. 34 (position 6: Ac-Asn) (peptide)
peptide: NCMLGRVYRPC
modifications: Ac-Asn at position 6 (N-terminal acetyl); C-terminal amide, Cys-Cys disulfide as in SEQ. ID. NO. 7
notes: ID; NO; 7 peptide; MCH position numbering
In the case of B1, the IC50 in assay [1] amounted to 2.6 nM. Further, in assay [2], the Activation % is 96% and it took 150 nM to reach a half-maximal effect (EC50).

B2: MCH analog SEQ. ID. NO. 39 (position 6: Arg) (peptide)
peptide: RCMLGRVYRPC-NH2
modifications: disulfide 2-11 (inferred)
notes: as for B1
B2 came in with an IC50 in assay [1] of 0.13 nM. In assay [2], the Activation % worked out at 106% and the “EC50” value amounted to 14 nM.

B3: MCH analog SEQ. ID. NO. 57 (position 10: D-Pro) (peptide)
peptide: RCMLXRVYRPC
modifications: D-Pro at position 10; N-terminal acetyl, C-terminal amide, Cys-Cys disulfide as in SEQ. ID. NO. 7
notes: as for B1
For the molecule B3, the IC50 in assay [3] came out at 1.2 nM. For the same molecule, in assay [4], the Activation % was found to be 90% and the “EC50” value worked out at 190 nM.

B4: MCH analog SEQ. ID. NO. 56 (position 10: D-Nle) (peptide)
peptide: RCMLXRVYRPC
modifications: D-Nle at position 10; N-terminal acetyl, C-terminal amide, Cys-Cys disulfide as in SEQ. ID. NO. 7
As to B4, the Activation % in assay [4] is 33%.

B5: MCH analog SEQ. ID. NO. 68 (position 13: Phe(pCOOH)) (peptide)
peptide: RCMLGRVXRPC
modifications: Phe(pCOOH) at position 13; N-terminal acetyl, C-terminal amide, Cys-Cys disulfide as in SEQ. ID. NO. 7
On to B5, for which the “EC50” value in assay [5] is more than 10000 nM.

B6: MCH analog SEQ. ID. NO. 60 (position 10: β-Ala) (peptide)
peptide: RCMLXRVYRPC
modifications: β-Ala at position 10; N-terminal acetyl, C-terminal amide, Cys-Cys disulfide as in SEQ. ID. NO. 7
With B6, in assay [4], the Activation % was 3.2% and the “EC50” value is more than 1000 nM.

B7: MCH analog SEQ. ID. NO. 28 (N-Me-Arg^11) (peptide)
peptide: RCMLGXVYRPC
modifications: N-methyl-arginine at position 11; N-terminal acetyl, C-terminal amide, Cys-Cys disulfide as in SEQ. ID. NO. 7
Consider B7, for which, in assay [6], the Activation % turned out to be 110%.

B8: MCH analog SEQ. ID. NO. 29 (N-Me-Arg^14) (peptide)
peptide: RCMLGRVYXPC
modifications: N-methyl-arginine at position 14; N-terminal acetyl, C-terminal amide, Cys-Cys disulfide as in SEQ. ID. NO. 7
Consider B8, for which the “EC50” value in assay [6] is more than 1000 nM.

B9: MCH analog SEQ. ID. NO. 66 (position 13: Phe(pF)) (peptide)
peptide: RCMLGRVXRPC
modifications: p-fluoro-phenylalanine at position 13; N-terminal acetyl, C-terminal amide, Cys-Cys disulfide as in SEQ. ID. NO. 7
Consider B9, for which, in assay [5], the Activation % worked out at 98%.

B10: MCH analog SEQ. ID. NO. 45 (position 6: Ac-D-Ser) (peptide)
peptide: XCMLGRVYRPC
modifications: Ac-D-Ser at position 6; C-terminal amide, Cys-Cys disulfide as in SEQ. ID. NO. 7
notes: as for B1
With B10, the concentration for half-maximal inhibition (IC50) in assay [1] was 2.3 nM. The same molecule yielded an Activation % in assay [2] of 93%.

B11: MCH analog SEQ. ID. NO. 38 (position 6: Ac) (peptide)
peptide: Ac-CMLGRVYRPC-NH2
modifications: disulfide 1-10
SMILES: CSCC[C@@H]1NC(=O)[C@@H](NC(C)=O)CSSC[C@@H](C(N)=O)NC(=O)[C@@H]2CCCN2C(=O)[C@H](CCCNC(=N)N)NC(=O)[C@H](Cc2ccc(O)cc2)NC(=O)[C@H](C(C)C)NC(=O)[C@H](CCCNC(=N)N)NC(=O)CNC(=O)[C@H](CC(C)C)NC1=O
notes: as for B1
On to B11, for which the IC50 in assay [1] came to 1.6 nM. Besides, in assay [2], the Activation % worked out at 82% and the “EC50” value was 144 nM.

B12: MCH analog SEQ. ID. NO. 32 (position 6: Ac-Nle) (peptide)
peptide: XCMLGRVYRPC
modifications: Ac-Nle (acetyl-norleucine) at position 6; C-terminal amide, Cys-Cys disulfide as in SEQ. ID. NO. 7
For B12, the Activation % in assay [2] came out at 107%.

B13: MCH analog SEQ. ID. NO. 41 (position 6: Ac-D-Arg) (peptide)
peptide: XCMLGRVYRPC
modifications: Ac-D-Arg at position 6; C-terminal amide, Cys-Cys disulfide as in SEQ. ID. NO. 7
notes: ID; NO; 7 peptide; MCH position numbering; 15 (D-Arg^6)
Take B13: the IC50 in assay [1] stood at 0.46 nM. For the same molecule, in assay [2], the Activation % is 86% and the “EC50” value was 45 nM.

B14: MCH analog SEQ. ID. NO. 59 (position 10: D-Lys) (peptide)
peptide: RCMLXRVYRPC
modifications: D-Lys at position 10; N-terminal acetyl, C-terminal amide, Cys-Cys disulfide as in SEQ. ID. NO. 7
On to B14, for which, in assay [4], the “EC50” value was more than 10000 nM.

B15: MCH analog SEQ. ID. NO. 61 (position 10: γ-Abu) (peptide)
peptide: RCMLXRVYRPC
modifications: γ-Abu (gamma-aminobutyric acid) at position 10; N-terminal acetyl, C-terminal amide, Cys-Cys disulfide as in SEQ. ID. NO. 7
For B15, the Activation % in assay [4] was found to be 101%.

B16: MCH analog SEQ. ID. NO. 46 (position 6: Ac-D-Glu) (peptide)
peptide: XCMLGRVYRPC
modifications: Ac-D-Glu at position 6; C-terminal amide, Cys-Cys disulfide as in SEQ. ID. NO. 7
On to B16, for which the Activation % in assay [2] worked out at 85%.

B17: MCH analog SEQ. ID. NO. 44 (position 6: Ac-D-Asn) (peptide)
peptide: XCMLGRVYRPC
modifications: Ac-D-Asn at position 6; C-terminal amide, Cys-Cys disulfide as in SEQ. ID. NO. 7
Consider B17, for which the Activation % in assay [2] was 94%.

In the case of DFDXLRCXLGRVYRPCWQV (norleucine (Nle) at positions 4 and 8; cyclization (S-S) between the two Cys), the “% Activation at 10 µM” value in assay [7] was 65.9%.

B18: MCH analog SEQ. ID. NO. 24 (D-Cys^16) (peptide)
peptide: RCMLGRVYRPX
modifications: D-Cys^16; N-terminal acetyl, C-terminal amide, Cys-Cys disulfide as in SEQ. ID. NO. 7
With B18, in assay [8], the Activation % stood at 76%.

B19: MCH analog SEQ. ID. NO. 42 (position 6: Ac-D-Nle) (peptide)
peptide: XCMLGRVYRPC
modifications: Ac-D-Nle at position 6; C-terminal amide, Cys-Cys disulfide as in SEQ. ID. NO. 7
notes: as for B1
For the molecule B19, the IC50 in assay [1] turned out to be 1.2 nM. Moreover, in assay [2], the Activation % is 97% and the “EC50” value was 110 nM.

The values are drawn from patent publication US20030105278A1 (MERK, published 2003).
